Article PMC6005765 (Bioorganic & medicinal chemistry letters, 2018)
Starred links: 1 amine or outer side, 2 acyl side, 3 side chain; linkers in the order of their positions; H or OH if unused. Non-standard residues stand in square brackets, D forms with d. Residues, ends and D or L forms follow the SMILES beside them. No end group written: not given here. Phe(2-(4-CF3-phenyl)) = O=C([C@H](Cc1ccccc1-c1ccc(C(F)(F)F)cc1)N[*:1])[*:2]; Phe(2-(2-methyl-1-propenyl)) = CC(C)=Cc1ccccc1C[C@H](N[*:1])C(=O)[*:2]; Phe(2-(4-MeO-phenyl)) = COc1ccc(-c2ccccc2C[C@H](N[*:1])C(=O)[*:2])cc1; Phe(2-(4-Cl-phenyl)) = O=C([C@H](Cc1ccccc1-c1ccc(Cl)cc1)N[*:1])[*:2]; Phe(2-(4-F-phenyl)) = O=C([C@H](Cc1ccccc1-c1ccc(F)cc1)N[*:1])[*:2]; Phe(3-(3-thienyl)) = O=C([C@H](Cc1cccc(-c2ccsc2)c1)N[*:1])[*:2]; Phe(4-(3-thienyl)) = O=C([C@H](Cc1ccc(-c2ccsc2)cc1)N[*:1])[*:2]; Phe(2-(3-thienyl)) = O=C([C@H](Cc1ccccc1-c1ccsc1)N[*:1])[*:2]; Phe(3-vinyl) = C=Cc1cccc(C[C@H](N[*:1])C(=O)[*:2])c1; Phe(4-vinyl) = C=Cc1ccc(C[C@H](N[*:1])C(=O)[*:2])cc1; Phe(2-vinyl) = C=Cc1ccccc1C[C@H](N[*:1])C(=O)[*:2]; Phe(3-Ph) = N[C@@H](Cc1cccc(-c2ccccc2)c1)C(=O)O; Phe(2-Ph) = N[C@@H](Cc1ccccc1-c1ccccc1)C(=O)O; Bip = N[C@@H](Cc1ccc(-c2ccccc2)cc1)C(=O)O; Dmt = Cc1cc(O)cc(C)c1C[C@H](N)C(=O)O; dNMeA = CN[C@H](C)C(=O)O

B1: Dmt-D-Arg-Phe(2-phenyl)-Gly-NH2 (peptide)
peptide: [Dmt][dR][Phe(2-Ph)]G-NH2
modifications: N-terminus assumed
SMILES: Cc1cc(O)cc(C)c1C[C@H](N)C(=O)N[C@H](CCCNC(=N)N)C(=O)N[C@@H](Cc1ccccc1-c1ccccc1)C(=O)NCC(N)=O
B2: Dmt-D-Arg-Phe(2-(3-thienyl))-Gly-NH2 (peptide)
peptide: [Dmt][dR][Phe(2-(3-thienyl))]G-NH2
modifications: N-terminus assumed
SMILES: Cc1cc(O)cc(C)c1C[C@H](N)C(=O)N[C@H](CCCNC(=N)N)C(=O)N[C@@H](Cc1ccccc1-c1ccsc1)C(=O)NCC(N)=O
B3: Dmt-N-Me-D-Ala-Phe(2-vinyl)-Gly-NH2 (peptide)
peptide: [Dmt][dNMeA][Phe(2-vinyl)]G-NH2
modifications: N-terminus assumed
SMILES: C=Cc1ccccc1C[C@H](NC(=O)[C@@H](C)N(C)C(=O)[C@@H](N)Cc1c(C)cc(O)cc1C)C(=O)NCC(N)=O
B4: Dmt-D-Arg-Phe(3-phenyl)-Gly-NH2 (peptide)
peptide: [Dmt][dR][Phe(3-Ph)]G-NH2
modifications: N-terminus assumed
SMILES: Cc1cc(O)cc(C)c1C[C@H](N)C(=O)N[C@H](CCCNC(=N)N)C(=O)N[C@@H](Cc1cccc(-c2ccccc2)c1)C(=O)NCC(N)=O
B5: Dmt-D-Arg-Phe(2-(2-methyl-1-propenyl)-Gly-NH2 (peptide)
peptide: [Dmt][dR][Phe(2-(2-methyl-1-propenyl))]G-NH2
modifications: N-terminus assumed
SMILES: CC(C)=Cc1ccccc1C[C@H](NC(=O)[C@@H](CCCNC(=N)N)NC(=O)[C@@H](N)Cc1c(C)cc(O)cc1C)C(=O)NCC(N)=O
B6: Dmt-D-Arg-Phe(2-vinyl)-Gly-NH2 (peptide)
peptide: [Dmt][dR][Phe(2-vinyl)]G-NH2
modifications: N-terminus assumed
SMILES: C=Cc1ccccc1C[C@H](NC(=O)[C@@H](CCCNC(=N)N)NC(=O)[C@@H](N)Cc1c(C)cc(O)cc1C)C(=O)NCC(N)=O
B7: Dmt-D-Arg-Phe(2-(4-Cl-phenyl))-Gly-NH2 (peptide)
peptide: [Dmt][dR][Phe(2-(4-Cl-phenyl))]G-NH2
modifications: N-terminus assumed
SMILES: Cc1cc(O)cc(C)c1C[C@H](N)C(=O)N[C@H](CCCNC(=N)N)C(=O)N[C@@H](Cc1ccccc1-c1ccc(Cl)cc1)C(=O)NCC(N)=O
B8: Dmt-D-Arg-Phe(2-(4-CF3-phenyl))-Gly-NH2 (peptide)
peptide: [Dmt][dR][Phe(2-(4-CF3-phenyl))]G-NH2
modifications: N-terminus assumed
SMILES: Cc1cc(O)cc(C)c1C[C@H](N)C(=O)N[C@H](CCCNC(=N)N)C(=O)N[C@@H](Cc1ccccc1-c1ccc(C(F)(F)F)cc1)C(=O)NCC(N)=O
B9: Dmt-D-Arg-Phe-Gly-NH2 (peptide)
peptide: [Dmt][dR]FG-NH2
modifications: N-terminus assumed
SMILES: Cc1cc(O)cc(C)c1C[C@H](N)C(=O)N[C@H](CCCNC(=N)N)C(=O)N[C@@H](Cc1ccccc1)C(=O)NCC(N)=O
B10: Dmt-D-Ala-Phe(2-vinyl)-Gly-NH2 (peptide)
peptide: [Dmt][dA][Phe(2-vinyl)]G-NH2
modifications: N-terminus assumed
SMILES: C=Cc1ccccc1C[C@H](NC(=O)[C@@H](C)NC(=O)[C@@H](N)Cc1c(C)cc(O)cc1C)C(=O)NCC(N)=O
B11: Dmt-D-Arg-Phe(2-(4-F-phenyl))-Gly-NH2 (peptide)
peptide: [Dmt][dR][Phe(2-(4-F-phenyl))]G-NH2
modifications: N-terminus assumed
SMILES: Cc1cc(O)cc(C)c1C[C@H](N)C(=O)N[C@H](CCCNC(=N)N)C(=O)N[C@@H](Cc1ccccc1-c1ccc(F)cc1)C(=O)NCC(N)=O
B12: Dmt-D-Arg-Phe(2-(4-MeO-phenyl))-Gly-NH2 (peptide)
peptide: [Dmt][dR][Phe(2-(4-MeO-phenyl))]G-NH2
modifications: N-terminus assumed
SMILES: COc1ccc(-c2ccccc2C[C@H](NC(=O)[C@@H](CCCNC(=N)N)NC(=O)[C@@H](N)Cc2c(C)cc(O)cc2C)C(=O)NCC(N)=O)cc1
B13: Dmt-D-Ala-Phe(2-phenyl)-Gly-NH2 (peptide)
peptide: [Dmt][dA][Phe(2-Ph)]G-NH2
modifications: N-terminus assumed
SMILES: Cc1cc(O)cc(C)c1C[C@H](N)C(=O)N[C@H](C)C(=O)N[C@@H](Cc1ccccc1-c1ccccc1)C(=O)NCC(N)=O
B14: Dmt-D-Arg-Phe(3-vinyl)-Gly-NH2 (peptide)
peptide: [Dmt][dR][Phe(3-vinyl)]G-NH2
modifications: N-terminus assumed
SMILES: C=Cc1cccc(C[C@H](NC(=O)[C@@H](CCCNC(=N)N)NC(=O)[C@@H](N)Cc2c(C)cc(O)cc2C)C(=O)NCC(N)=O)c1
B15: Dmt-D-Arg-Phe(4-(3-thienyl))-Gly-NH2 (peptide)
peptide: [Dmt][dR][Phe(4-(3-thienyl))]G-NH2
modifications: N-terminus assumed
SMILES: Cc1cc(O)cc(C)c1C[C@H](N)C(=O)N[C@H](CCCNC(=N)N)C(=O)N[C@@H](Cc1ccc(-c2ccsc2)cc1)C(=O)NCC(N)=O
B16: Dmt-D-Arg-Phe(4-phenyl)-Gly-NH2 (peptide)
peptide: [Dmt][dR][Bip]G-NH2
modifications: N-terminus assumed
SMILES: Cc1cc(O)cc(C)c1C[C@H](N)C(=O)N[C@H](CCCNC(=N)N)C(=O)N[C@@H](Cc1ccc(-c2ccccc2)cc1)C(=O)NCC(N)=O
B17: Dmt-D-Arg-Phe(3-(3-thienyl))-Gly-NH2 (peptide)
peptide: [Dmt][dR][Phe(3-(3-thienyl))]G-NH2
modifications: N-terminus assumed
SMILES: Cc1cc(O)cc(C)c1C[C@H](N)C(=O)N[C@H](CCCNC(=N)N)C(=O)N[C@@H](Cc1cccc(-c2ccsc2)c1)C(=O)NCC(N)=O
B18: Dmt-D-Arg-Phe(4-vinyl)-Gly-NH2 (peptide)
peptide: [Dmt][dR][Phe(4-vinyl)]G-NH2
modifications: N-terminus assumed
SMILES: C=Cc1ccc(C[C@H](NC(=O)[C@@H](CCCNC(=N)N)NC(=O)[C@@H](N)Cc2c(C)cc(O)cc2C)C(=O)NCC(N)=O)cc1

How the values were obtained:
[1] = target: μ opioid receptor (MOP) (Homo sapiens, UniProt P35372); format: binding; details: for MOP IC50: [125I]-DAMGO competition, HEK293 membranes
[2] = target: μ opioid receptor (UniProt P35372)
[3] = test system: guinea pig ileum (GPI), MOP; details: for Functional character in GPI assay: in vitro
[4] = target: δ opioid receptor (DOP) (Homo sapiens, UniProt P41143); format: binding
[5] = target: δ opioid receptor (UniProt P41143)
[6] = target: δ opioid receptor (UniProt P41143); remark: listed apart in the source
[7] = target: δ opioid receptor (UniProt P41143); test: radioligand binding
[8] = target: μ opioid receptor (UniProt P35372); test: radioligand binding

Sequence of μ opioid receptor (MOP) (P35372 whole entry, species assumed): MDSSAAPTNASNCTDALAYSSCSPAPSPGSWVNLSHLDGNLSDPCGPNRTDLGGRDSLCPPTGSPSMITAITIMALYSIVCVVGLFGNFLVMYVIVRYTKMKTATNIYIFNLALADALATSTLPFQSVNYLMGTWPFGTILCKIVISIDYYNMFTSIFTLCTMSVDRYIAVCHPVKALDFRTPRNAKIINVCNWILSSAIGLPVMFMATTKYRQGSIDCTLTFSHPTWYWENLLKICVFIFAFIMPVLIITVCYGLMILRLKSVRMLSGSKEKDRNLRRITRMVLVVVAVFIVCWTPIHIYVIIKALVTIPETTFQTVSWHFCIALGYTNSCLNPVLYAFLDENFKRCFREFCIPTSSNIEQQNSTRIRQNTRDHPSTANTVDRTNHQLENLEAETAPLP

Molecule	IC50 in the guinea pig ileum (GPI) assay [2]	IC50 in the mouse vas deferens (MVD) assay [6]	IC50 [7]	IC50 [8]	further results
Cc1cc(O)cc(C)c1C[C@H](N)C(=O)N[C@H](C)C(=O)N[C@@H](Cc1ccccc1-c1ccsc1)C(=O)NCC(N)=O [Compound 16, Dmt-D-Ala-Phe(2-(3-thienyl))-Gly-NH2]	–	–	–	–	MOP IC50 [1]: poor affinity for MOP
Deltorphin II (peptide)	854 nM	–	–	–	–
COc1ccc(-c2ccccc2C[C@H](NC(=O)[C@@H](CCCNC(=N)N)NC(=O)[C@@H](N)Cc2c(C)cc(O)cc2C)C(=O)NCC(N)=O)cc1 [Compound 10, Dmt-D-Arg-Phe(2-(4-MeO-phenyl))-Gly-NH2]	–	–	–	–	IC50 ([3]; read-out: IC50 (GPI), agonist potency): 0.901 ± 0.224 nM; IC50 [1]: 0.47 ± 0.24 nM; Selectivity IC50δ/IC50μ ([1]; ratio DOP IC50 / MOP IC50): 149; IC50 [4]: 70.2 ± 27.2 nM
Cc1cc(O)cc(C)c1C[C@H](N)C(=O)N[C@H](CCCNC(=N)N)C(=O)N[C@@H](Cc1ccc(-c2ccccc2)cc1)C(=O)NCC(N)=O [Compound 1, Dmt-D-Arg-Phe(4-phenyl)-Gly-NH2] (H-[Dmt][dR][Bip]G-NH2)	–	–	–	–	Functional character in GPI assay [3]: μ-opioid antagonism
Cc1cc(O)cc(C)c1C[C@H](N)C(=O)N[C@H](CCCNC(=N)N)C(=O)N[C@@H](Cc1ccc(-c2ccsc2)cc1)C(=O)NCC(N)=O [Compound 4, Dmt-D-Arg-Phe(4-(3-thienyl))-Gly-NH2]	–	–	–	–	Functional character in GPI assay [3]: μ-opioid antagonism
C=Cc1ccccc1C[C@H](NC(=O)[C@@H](CCCNC(=N)N)NC(=O)[C@@H](N)Cc1c(C)cc(O)cc1C)C(=O)NCC(N)=O [Compound 9, Dmt-D-Arg-Phe(2-vinyl)-Gly-NH2]	–	–	–	–	MOP IC50 [1]: subnanomolar binding affinity
DAMGO (peptide)	28.3 nM	–	–	–	EPAC DOP EC50 (EPAC cAMP BRET-based biosensor assay) [5]: 49 nM
B1	3.47 nM	6.99 nM	20.2 nM	0.54 nM	–
B2	1.54 nM	2.75 nM	625 nM	1.45 nM	EPAC DOP EC50 (EPAC cAMP BRET-based biosensor assay) [5]: 49 nM
B3	0.641 nM	0.689 nM	–	–	–
B4	61.7 nM	–	269 nM	0.85 nM	IC40 (partial agonist) in the mouse vas deferens (MVD) assay [6]: 117 nM
B5	0.701 nM	0.63 nM	585 nM	0.57 nM	EPAC DOP EC50 (EPAC cAMP BRET-based biosensor assay) [5]: 19.4 nM
B6	0.389 nM	0.406 nM	18 nM	0.47 nM	EPAC DOP EC50 (EPAC cAMP BRET-based biosensor assay) [5]: 7 nM
B7	2.39 nM	1.63 nM	–	–	–
B8	1.26 nM	1.78 nM	–	–	EPAC DOP EC50 (EPAC cAMP BRET-based biosensor assay) [5]: 26.8 nM
B9	2.26 nM	0.316 nM	–	–	EPAC DOP EC50 (EPAC cAMP BRET-based biosensor assay) [5]: 1.13 nM
B10	1.18 nM	2.81 nM	8 nM	0.25 nM	–
B11	0.801 nM	2.95 nM	–	–	–
B12	0.901 nM	5.23 nM	–	–	–
B13	1.6 nM	2.6 nM	19.8 nM	0.35 nM	–
B14	1.43 nM	9.74 nM	165 nM	0.46 nM	–
B15	–	–	309 nM	5.04 nM	IC20 (partial agonist) in the mouse vas deferens (MVD) assay [6]: 3960 nM
B16	–	–	42.3 nM	7.08 nM	IC20 (partial agonist) in the mouse vas deferens (MVD) assay [6]: 3090 nM
B17	30.4 nM	–	601 nM	1.03 nM	IC35 (partial agonist) in the mouse vas deferens (MVD) assay [6]: 52.8 nM
B18	24.1 nM	430 nM	1420 nM	1.82 nM	–
